B1: HSDI7B12 (protein, UniProt Q53GQ0 1-312, looked up)
Very-long-chain 3-oxoacyl-CoA …: MESALPAAGFLYWVGAGTVAYLALRISYSLFTALRVWGVGNEAGVGPGLGEWAVVTGSTDGIGKSYAEELAKHGMKVVLISRSKDKLDQVSSEIKEKFKVETRTIAVDFASEDIYDKIKTGLAGLEIGILVNNVGMSYEYPEYFLDVPDLDNVIKKMININILSVCKMTQLVLPGMVERSKGAILNISSGSGMLPVPLLTIYSATKTFVDFFSQCLHEEYRSKGVFVQSVLPYFVATKLAKIRKPTLDKPSPETFVKSAIKTVGLQSRTNGYLIHALMGSIISNLPSWIYLKIVMNMNKSTRAHYLKKTKKN
B2: SLC16A11 (protein, UniProt Q8NCK7 1-471, looked up)
Monocarboxylate transporter 11: MPAPQRKHRRGGFSHRCFPTPQTAMTPQPAGPPDGGWGWVVAAAAFAINGLSYGLLRSLGLAFPDLAEHFDRSAQDTAWISALALAVQQAASPVGSALSTRWGARPVVMVGGVLASLGFVFSAFASDLLHLYLGLGLLAGFGWALVFAPALGTLSRYFSRRRVLAVGLALTGNGASSLLLAPALQLLLDTFGWRGALLLLGAITLHLTPCGALLLPLVLPGDPPAPPRSPLAALGLSLFTRRAFSIFALGTALVGGGYFVPYVHLAPHALDRGLGGYGAALVVAVAAMGDAGARLVCGWLADQGWVPLPRLLAVFGALTGLGLWVVGLVPVVGGEESWGGPLLAAAVAYGLSAGSYAPLVFGVLPGLVGVGGVVQATGLVMMLMSLGGLLGPPLSGFLRDETGDFTASFLLSGSLILSGSFIYIGLPRALPSCGPASPPATPPPETGELLPAPQAVLLSPGGPGSTLDTTC
B3: TMEM33 (protein)
chain: ADTTPNGPQGAGAVQFMMTNKLDTAMWLSRLFTVYCSALFVLPLLGLHEAASFYQRALLANALTSALRLHQRLPHFQLSRAFLAQALLEDSCHYLLYSLIFVNSYPVTMSIFPVLLFSLLHAATYTKKVLDARGSNSLPLLRSVLDKLSANQQNILKFIACNEIFLMPATVFMLFSGQGSLLQPFIYYRFLTLRYSSRRNPYCRTLFNELRIVVEHIIMKPACPLFVRRLCLQSIAFISRLAPTVP
B4: SACM1L (protein)
chain: MATAAYEQLKLHITPEKFYVEACDDGADDVLTIDRVSTEVTLAVKKDVPPSAVTRPIFGILGTIHLVAGNYLIVITKKIKVGEFFSHVVWKATDFDVLSYKKTMLHLTDIQLQDNKTFLAMLNHVLNVDGFYFSTTYDLTHTLQRLSNTSPEFQEMSLLERADQRFVWNGHLLRELSAQPEVHRFALPVLHGFITMHSCSINGKYFDWILISRRSCFRAGVRYYVRGIDSEGHAANFVETEQIVHYNGSKASFVQTRGSIPVFWSQRPNLKYKPLPQISKVANHMDGFQRHFDSQVIIYGKQVIINLINQKGSEKPLEQTFATMVSSLGSGMMRYIAFDFHKECKNMRWDRLSILLDQVAEMQDELSYFLVDSAGQVVANQEGVFRSNCMDCLDRTNVIQSLLARRSLQAQLQRLGVLHVGQKLEEQDEFEKIYKNAWADNANACAKQYAGTGALKTDFTRTGKRTHLGLIMDGWNSMIRYYKNNFSDGFRQDSIDLFLGNYSVDELESHSPLSVPRDWKFLALPIIMVVAFSMCIICLLMAGDTWTETLAYVLFWGVASIGTFFIILYNGKDFVDAPRLVQKEKID
B5: DDOST (protein)
chain: SGPRTLVLLDNLNVRETHSLFFRSLKDRGFELTFKTADDPSLSLIKYGEFLYDNLIIFSPSVEDFGGNINVETISAFIDGGGSVLVAASSDIGDPLRELGSECGIEFDEEKTAVIDHHNYDISDLGQHTLIVADTENLLKAPTIVGKSSLNPILFRGVGMVADPDNPLVLDILTGSSTSYSFFPDKPITQYPHAVGKNTLLIAGLQARNNARVIFSGSLDFFSDSFFNSAVQKAAPGSQRYSQTGNYELAVALSRWVFKEEGVLRVGPVSHHRVGETAPPNAYTVTDLVEYSIVIQQLSNGKWVPFDGDDIQLEFVRIDPFVRTFLKKKGGKYSVQFKLPDVYGVFQFKVDYNRLGYTHLYSSTQVSVRPLQHTQYERFIPSAYPYYASAFSMMLGLFIFSIVFLHMKEKEKSD
B6: CANX (protein)
chain: HDGHDDDVIDIEDDLDDVIEEVEDSKPDTTAPPSSPKVTYKAPVPTGEVYFADSFDRGTLSGWILSKAKKDDTDDEIAKYDGKWEVEEMKESKLPGDKGLVLMSRAKHHAISAKLNKPFLFDTKPLIVQYEVNFQNGIECGGAYVKLLSKTPELNLDQFHDKTPYTIMFGPDKCGEDYKLHFIFRHKNPKTGIYEEKHAKRPDADLKTYFTDKKTHLYTLILNPDNSFEILVDQSVVNSGNLLNDMTPPVNPSREIEDPEDRKPEDWDERPKIPDPEAVKPDDWDEDAPAKIPDEEATKPEGWLDDEPEYVPDPDAEKPEDWDEDMDGEWEAPQIANPRCESAPGCGVWQRPVIDNPNYKGKWKPPMIDNPSYQGIWKPRKIPNPDFFEDLEPFRMTPFSAIGLELWSMTSDIFFDNFIICADRRIVDDWANDGWGLKKAADGAAEPGVVGQMIEAAEERPWLWVVYILTVALPVFLVILFCCSGKKQTSGMEYKKTDAPQPDVKEEEEEKEEEKDKGDEEEEGEEKLEEKQKSDAEEDGGTVSQEEEDRKPKAEEDEILNRSPRNRKPRRE
B7: SURF4 (protein)
chain: GQNDLMGTAEDFADQFLRVTKQYLPHVARLCLISTFLEDGIRMWFQWSEQRDYIDTTWNCGYLLASSFVFLNLLGQLTGCVLVLSRNFVQYACFGLFGIIALQTIAYSILWDLKFLMRNLALGGGLLLLLAESRSEGKSMFAGVPTMRESSPKQYMQLGGRVLLVLMFMTLLHFDASFFSIVQNIVGTALMILVAIGFKTKLAALTLVVWLFAINVYFNAFWTIPVYKPMHDFLKYDFFQTMSVIGGLLLVVALGPGGVSMDEKKKEW
B8: HSD17B12 (protein)
chain: MESALPAAGFLYWVGAGTVAYLALRISYSLFTALRVWGVGNEAGVGPGLGEWAVVTGSTDGIGKSYAEELAKHGMKVVLISRSKDKLDQVSSEIKEKFKVETRTIAVDFASEDIYDKIKTGLAGLEIGILVNNVGMSYEYPEYFLDVPDLDNVIKKMININILSVCKMTQLVLPGMVERSKGAILNISSGSGMLPVPLLTIYSATKTFVDFFSQCLHEEYRSKGVFVQSVLPYFVATKLAKIRKPTLDKPSPETFVKSAIKTVGLQSRTNGYLIHALMGSIISNLPSWIYLKIVMNMNKSTRAHYLKKTKKN
B9: SEC61A2 (protein)
chain: MGIKFLEVIKPFCAVLPEIQKPERKIQFREKVLWTAITLFIFLVCCQIPLFGIMSSDSADPFYWMRVILASNRGTLMELGISPIVTSGLIMQLLAGAKIIEVGDTPKDRALFNGAQKLFGMIITIGQAIVYVMTGMYGDPAEMGAGICLLIIIQLFVAGLIVLLLDELLQKGYGLGSGISLFIATNICETIVWKAFSPTTINTGRGTEFEGAVIALFHLLATRTDKVRALREAFYRQNLPNLMNLIATVFVFAVVIYFQGFRVDLPIKSARYRGQYSSYPIKLFYTSNIPIILQSALVSNLYVISQMLSVRFSGNFLVNLLGQWADVSGGGPARSYPVGGLCYYLSPPESMGAIFEDPVHVVVYIIFMLGSCAFFSKTWIEVSGSSAKDVAKQLKEQQMVMRGHRDTSMVHELNRYIPTAAAFGGLCIGALSVLADFLGAIGSGTGILLAVTIIYQYFEIFVKEQAEVGGMGALFF
B10: BAG2 (protein)
chain: AQAKINAKANEGRFCRSSSMADRSSRLLESLDQLELRVEALREAATAVEQEKEILLEMIHSIQNSQDMRQISDGEREELNLTANRLMGRTLTVEVSVETIRNPQQQESLKHATRIIDEVVNKFLDDLGNAKSHLMSLYSACSSEVPHGPVDQKFQSIVIGCALEDQKKIKRRLETLLRNIENSDKAIKLLEHSKGAGSKTLQQNAESRFN

The first assay deals with SLC16A11. Description: SLC16A11 protein-protein interaction study (immunoprecipitation, quantitative mass spectrometry). The following applies: enrichment of protein immunoprecipitated from HEK293T cells expressing P2D SLC16A11^REF-V5 vs empty vector control; Blandt-Altman; quantitative mass spectrometry. On the set-up: species or system human. An excerpt: Alternatively, these variants may result in reduced transport because they disrupt protein-protein interactions responsible for correct SLC16A11 function. To explore this possibility, SLC16A11 was immunoprecipitated from HEK293T cells expressing either REF or T2D risk SLC16A11-V5 or empty vector control and quantitative mass spectrometry was used to define the SLC16A11 interactome.
Another mechanism through which the variants could affect activity is through disruption of protein-protein interactions. To explore this possibility, quantitative mass spectrometry-based protein-protein interaction studies were performed to define the SLC16A11 interactome and evaluate if the T2D risk coding variants alter any interactions.
Beads were then washed once with lysis buffer and three times with wash buffer. After the last wash, residual wash buffer was removed, 10 μL fresh wash buffer was added, and beads were stored at −80° C. until analysis by the Proteomics Platform at the Broad Institute, as detailed in the “Proteomics Methods for SLC16A11 Protein Interaction Studies” below.
The beads from immunopurification were washed once with IP lysis buffer, then three times with PBS, the three different lysates of each replicate were resuspended in 90 uL digestion buffer (2M Urea, 50 mM Tris HCl), 2 ug of sequencing grade trypsin added, 1 hour shaking at 700 rpm. The supernatant was removed and placed in a fresh tube. The beads were then washed twice with 50 uL digestion buffer and combined with the supernatant. The combined supernatants were reduced (2 uL 500 mM DTT, 30 minutes, RT), alkylated (4 uL 500 mM IAA, 45 minutes, dark) and a longer overnight digestion performed: 2 ug (4 uL) trypsin, shake o/n, The samples were then quenched with 20 uL 10% FA and desalted on 10 mg SepPak columns.
Desalted peptides were labelled with iTRAQ reagents according to the manufacturer's instructions (AB Sciex, Foster City, Calif.). Peptides were dissolved in 30 μl of 0.5 M TEAB pH 8.5 solution and labeling reagent was added in 70 ul of ethanol. After 1 h incubation the reaction was stopped with 50 mM Tris/HCl pH 7.5. Differentially labelled peptides were mixed and subsequently desalted on 10 mg SepPak columns.
Reconstituted peptides were separated on an online nanoflow EASY-nLC 1000 UHPLC system (Thermo Fisher Scientific) and analyzed on a benchtop Orbitrap Q Exactive Plus mass spectrometer (Thermo Fisher Scientific). The peptide samples were injected onto a capillary column (Picofrit with 10 μm tip opening/75 μm diameter, New Objective, PF360-75-10-N-5) packed in-house with 20 cm C18 silica material (1.9 μm ReproSil-Pur C18-AQ medium, Dr. Maisch GmbH, r119.aq). The UHPLC setup was connected with a custom-fit microadapting tee (360 μm, IDEX Health & Science, UH-753), and capillary columns were heated to 50° C. in column heater sleeves (Phoenix-ST) to reduce backpressure during UHPLC separation. Injected peptides were separated at a flow rate of 200 nL/min with a linear 80 min gradient from 100% solvent A (3% acetonitrile, 0.1% formic acid) to 30% solvent B (90% acetonitrile, 0.1% formic acid), followed by a linear 6 min gradient from 30% solvent B to 90% solvent B. Each sample was run for 120 min, including sample loading and column equilibration times. The Q Exactive instrument was operated in the data-dependent mode acquiring HCD MS/MS scans (R=17,500) after each MS1 scan (R=70,000) on the 12 top most abundant ions using an MS1 ion target of 3×10^6 ions and an MS2 target of 5×10^4 ions. The maximum ion time utilized for the MS/MS scans was 120 ms; the HCD-normalized collision energy was set to 27; the dynamic exclusion time was set to 20 s, and the peptide match and isotope exclusion functions were enabled.
All mass spectra were processed using the Spectrum Mill software package v6.0 pre-release (Agilent Technologies) which includes modules developed by us for iTRAQ-based quantification. […]
B1: the “B.A. logFC” value worked out at 1.26.

Still in this assay, the particulars now being: putative SLC16A11^REF interaction partners; immunoprecipitation from HEK293T cells vs empty vector control; Blandt-Altman.
As for B2, the “BA log fold change” value came to 1.34.
Take B3: the “BA log fold change” value came to 1.25.
The same measure, in the same setting: as for B4, the figure is 1.26; as for B5, 1.65; as for B6, 1.38.
The same measure, in the same setting: as for B7, the figure is 1.33.
On the same count and under the same terms, as for B8, the figure is 1.26; as for B9, 1.59.
In the case of B10, the “BA log fold change” value stood at 1.26.

Source of the values: patent US11471462B2, “Compositions and methods for detecting and treating diabetes” (THE BROAD INSTITUTE, INC., priority 2016, dated 2022).
